[ ]: non-standard residue; d: D form. The star is where a group is joined. FITC = O=C1OC2(c3ccc(O)cc3Oc3cc(O)ccc32)c2ccc(NC(=S)*)cc21; pT = C[C@@H](OP(=O)(O)O)[C@H](N)C(=O)O; Ahx = NCCCCCC(=O)O
What was measured:
Settings in all cases: both partners purified
[1] = target: T1, Plk1 polo-box domain, PBD1 (residues 345–603) WT (human, UniProt P53350 345-603); assay: fluorescence polarisation; direct binding: FITC-Ahx-DPPLHSpTAI-NH2 with different concentrations of recombinant PBD1 WT or mutants
T1 construct: Polo-like kinase 1 (Plk1), polo-box domain, residues 345-603; TEV-PBD1 fragment in pET-Duet-1; A TEV site precedes PBD1 in the insert; also called PBD1 WT; Plk1 PBD; source: E. coli (purified as described for the crystallography construct, Rosetta strain)
T1 sequence (P53350 345-603): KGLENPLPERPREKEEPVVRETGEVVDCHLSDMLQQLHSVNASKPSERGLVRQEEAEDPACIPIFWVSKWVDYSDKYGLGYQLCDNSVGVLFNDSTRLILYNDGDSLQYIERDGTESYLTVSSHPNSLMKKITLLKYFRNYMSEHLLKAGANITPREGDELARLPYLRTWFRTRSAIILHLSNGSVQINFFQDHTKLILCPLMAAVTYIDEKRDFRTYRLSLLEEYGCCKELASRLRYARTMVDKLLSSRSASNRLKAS

[2] = target: T2, PBD1 (residues 345–603) F559K (human, UniProt P53350 345-603, F559K); assay: fluorescence polarisation; inhibition assay: FITC-conjugated ligand (15 nM) mixed with PBD at its EC85 concentration, competitor varied; read about 30 min after reaction, 384-well format
T2 construct: Polo-like kinase 1 (Plk1), polo-box domain, residues 345-603, F559K; also called F559K mutant; source: E. coli (purified as described for the crystallography construct, Rosetta strain)
T2 sequence (P53350 345-603 F559K): as the sequence (P53350 345-603) above, with F215K counted along it

[3] = target: T3, PBD1 (residues 345–603) F559R (human, UniProt P53350 345-603, F559R); assay: as above
T3 construct: Polo-like kinase 1 (Plk1), polo-box domain, residues 345-603, F559R; also called F559R mutant; source: E. coli (purified as described for the crystallography construct, Rosetta strain)
T3 sequence (P53350 345-603 F559R): as the sequence (P53350 345-603) above, with F215R counted along it

[4] = target: T4, PBD1 (residues 345–603) F559D (human, UniProt P53350 345-603, F559D); assay: as above
T4 construct: Polo-like kinase 1 (Plk1), polo-box domain, residues 345-603, F559D; also called F559D mutant protein; source: E. coli (purified as described for the crystallography construct, Rosetta strain)
T4 sequence (P53350 345-603 F559D): as the sequence (P53350 345-603) above, with F215D counted along it

[5] = target: T5, PBD1 (residues 345–603) F559E (human, UniProt P53350 345-603, F559E); assay: as above
T5 construct: Polo-like kinase 1 (Plk1), polo-box domain, residues 345-603, F559E; also called F559E mutant; source: E. coli (purified as described for the crystallography construct, Rosetta strain)
T5 sequence (P53350 345-603 F559E): as the sequence (P53350 345-603) above, with F215E counted along it

Measured: binding result

B1: FITC-Ahx-DPPLHSpTAI-NH2 (peptide)
peptide: {FITC-Ahx}-DPPLHS[pT]AI-NH2
SMILES: CC[C@H](C)[C@H](NC(=O)[C@H](C)NC(=O)[C@@H](NC(=O)[C@H](CO)NC(=O)[C@H](Cc1c[nH]cn1)NC(=O)[C@H](CC(C)C)NC(=O)[C@@H]1CCCN1C(=O)[C@@H]1CCCN1C(=O)[C@H](CC(=O)O)NC(=O)CCCCCNC(=S)Nc1ccc2c(c1)C(=O)OC21c2ccc(O)cc2Oc2cc(O)ccc21)[C@@H](C)OP(=O)(O)O)C(N)=O
notes: also called FITC-conjugated phosphopeptide; FITC-conjugated ligand
binds: all assays above
